Our source for the pseudovirus neutralisation IC50 (luciferase RLU, 293T-hACE2 cells) values is patent CN114656556A.

For assay [1], the target named is SARS-CoV2 S蛋白, 奥密克戎 (Omicron:BA.1), on pseudovirus (SARS-CoV2). Description: cell-based or functional assay.
Assay [2] deals with SARS-CoV2 S蛋白, 拉姆达 (Lambda:C.37), on pseudovirus (SARS-CoV2). Nature of the assay: cell-based or functional assay.

B1: 全人源单克隆抗体YK-CoV2-03 (fully human anti-SARS-CoV2 monoclonal antibody, whole IgG) (antibody, V domains shown)
VH: EVQLQESGGGLVQPGGSLRLSCAASGLTVSRNYMTWVRQAPGKGLEWVSLIYAGGSTYYADSVKGRFTISRDNSKNTLYLQMNSLGAEDTAVYYCARDLVYYGMDVWGQGTTVTVAS
VL: DIQMTQSPFSLSASVGDRVTITCRASQGISSYLAWYQQKPGKAPKLLIYAASTLQSGVPSRFSGSGSGTDFTLTISSLQPEDFATYYCQHLNSDRYTFGQGTKLEI
As to B1, the pseudovirus neutralisation IC50 (luciferase RLU, 293T-hACE2 cells) in assay [1] was 0.32 µg/mL; in assay [2] it was 0.0209 µg/mL.
